We go through 38 variants from the RNAGym collection of RNA variant scans (doi:10.7554/elife.80360).

Sequences and labels used below:
B1: Hairpin Ribozyme (parent)
chain: GUCCUCUUUCACGUGCGCGUGAAAGAGAGAAGUGAACCAGAGAAACACACGUUGUGGUAUAUUACCUGGUA

In the data set the parent is B1. Description: self-cleavage, relative activity (ratio to wild type); higher = more cleavage; co-transcriptional.
Consider GUCCUCUUUCACGUGCGCGUGAAAGAGAGAAGUGAACCAGAGAUAGACACGUUGUGGUAUAUUACCUGGUA [A44U C46G], for which the self-cleavage was found to be 0.0928.
GUCCUCUUUCACGUGCGCGUGAAAGAGAGAAGUGAACCAGAGAUACACACAUUGUGGUAUAUUACCUGGUA [A44U G51A]: the self-cleavage was determined as 0.157.
For GUCCUCUUUCACGUGCGCGUGAAAGAGAGAAGUGAACCAGAGAUACACACCUUGUGGUAUAUUACCUGGUA [A44U G51C], the self-cleavage was 0.246.
As for GUCCUCUUUCACGUGCGCGUGAAAGAGAGAAGUGAACCAGAGAUACACACUUUGUGGUAUAUUACCUGGUA [A44U G51U], the self-cleavage turned out to be 0.096.
As for GUCCUCUUUCACGUGCGCGUGAAAGAGAGAAGUGAACCAGAGAUACACACGUUGUGGUAUAUUACCUCGUA [A44U G68C], the self-cleavage amounted to 0.148.
The same measure for GUCCUCUUUCACGUGCGCGUGAAAGAGAGAAGUGAACCAGAGAUACACACGUUGUGGUAUAUUACCUAGUA [A44U G68A]: 0.116.
As to GUCCUCUUUCACGUGCGCGUGAAAGAGAGAAGUGAACCAGAGAUACACAGGUUGUGGUAUAUUACCUGGUA [A44U C50G], the self-cleavage stood at 0.156.
On to GUCCUCUUUCACGUGCGCGUGAAAGAGAGAAGUGAACCAGAGAUACACAAGUUGUGGUAUAUUACCUGGUA [A44U C50A], for which the self-cleavage worked out at 0.172.
Regarding GUCCUCUUUCACGUGCGCGUGAAAGAGAGAAGUGAACCAGAGAGACACACGUUGUUGUAUAUUACCUGGUA [A44G G56U], the self-cleavage is 0.226.
As to GUCCUCUUUCACGUGCGCGUGAAAGAGAGAAGUGAACCAGAGAGACACACGUUGUGGUAUAUUACUUGGUA [A44G C66U], the self-cleavage stood at 0.0408.
The same measure for GUCCUCUUUCACGUGCGCGUGAAAGAGAGAAGUGAACCAGAGAGACAGACGUUGUGGUAUAUUACCUGGUA [A44G C48G]: 0.115; for GUCCUCUUUCACGUGCGCGUGAAAGAGAGAAGUGAACCAGAGAGACAUACGUUGUGGUAUAUUACCUGGUA [A44G C48U]: 0.0899.
Next, GUCCUCUUUCACGUGCGCGUGAAAGAGAGAAGUGAACCAGAGACACACACGUUGUGGUAUAUUAGCUGGUA [A44C C65G]: 0.17; GUCCUCUUUCACGUGCGCGUGAAAGAGAGAAGUGAACCAGAGACACACACGUUGUGGUAUAUUACCUUGUA [A44C G68U]: 0.126; GUCCUCUUUCACGUGCGCGUGAAAGAGAGAAGUGAACCAGAGAGACACACGUUGUGGUAAAUUACCUGGUA [A44G U60A]: 0.171.
In the case of GUCCUCUUUCACGUGCGCGUGAAAGAGAGAAGUGAACCAGAGAGACGCACGUUGUGGUAUAUUACCUGGUA [A44G A47G], the self-cleavage stood at 0.17.
With GUCCUCUUUCACGUGCGCGUGAAAGAGAGAAGUGAACCAGAGAGACACACGUUGUGGUAUAUUACCUGCUA [A44G G69C], the self-cleavage is 0.196.
GUCCUCUUUCACGUGCGCGUGAAAGAGAGAAGUGAACCAGAGAGACACACGUUGUGGUAUAUUACCUGUUA [A44G G69U]: the self-cleavage is 0.0884.
On to GUCCUCUUUCACGUGCGCGUGAAAGAGAGAAGUGAACCAGAGAGACACACGUUGUGGUAUAUUGCCUGGUA [A44G A64G], for which the self-cleavage was 0.0828.
With GUCCUCUUUCACGUGCGCGUGAAAGAGAGAAGUGAACCAGAGAGACACACGUUGUGGUAUAUUAUCUGGUA [A44G C65U], the self-cleavage was 0.0694.
As for GUCCUCUUUCACGUGCGCGUGAAAGAGAGAAGUGAACCAGAGAGACACACGUUGUGGUAUAUUAACUGGUA [A44G C65A], the self-cleavage is 0.0664.
As to GUCCUCUUUCACGUGCGCGUGAAAGAGAGAAGUGAACCAGAGAUACUCACGUUGUGGUAUAUUACCUGGUA [A44U A47U], the self-cleavage is 0.0528.
For GUCCUCUUUCACGUGCGCGUGAAAGAGAGAAGUGAACCAGAGAUACACACGUUGUGCUAUAUUACCUGGUA [A44U G57C], the self-cleavage was 0.0924.
On to GUCCUCUUUCACGUGCGCGUGAAAGAGAGAAGUGAACCAGAGAUACACACGUUGUGUUAUAUUACCUGGUA [A44U G57U], for which the self-cleavage was 0.206.
Next, GUCCUCUUUCACGUGCGCGUGAAAGAGAGAAGUGAACCAGAGACACACACGCUGUGGUAUAUUACCUGGUA [A44C U52C]: 0.213; GUCCUCUUUCACGUGCGCGUGAAAGAGAGAAGUGAACCAGAGACACACACGAUGUGGUAUAUUACCUGGUA [A44C U52A]: 0.0299.
As for GUCCUCUUUCACGUGCGCGUGAAAGAGAGAAGUGAACCAGAGAUACACACGUUGUGGUAGAUUACCUGGUA [A44U U60G], the self-cleavage came to 0.179.
In the case of GUCCUCUUUCACGUGCGCGUGAAAGAGAGAAGUGAACCAGAGACACACACGUUGUGGUAUAUUACCUGGAA [A44C U70A], the self-cleavage worked out at 0.109.
Consider GUCCUCUUUCACGUGCGCGUGAAAGAGAGAAGUGAACCAGAGACACACACGUUGUGGUAUAUUACCUGGCA [A44C U70C], for which the self-cleavage came out at 0.176.
On to GUCCUCUUUCACGUGCGCGUGAAAGAGAGAAGUGAACCAGAGAUACACACGUUGAGGUAUAUUACCUGGUA [A44U U55A], for which the self-cleavage was found to be 0.282.
On to GUCCUCUUUCACGUGCGCGUGAAAGAGAGAAGUGAACCAGAGAUACACACGUUGUGGCAUAUUACCUGGUA [A44U U58C], for which the self-cleavage stood at 0.177.
Take GUCCUCUUUCACGUGCGCGUGAAAGAGAGAAGUGAACCAGAGAUACACACGUUGUGGAAUAUUACCUGGUA [A44U U58A]: the self-cleavage was 0.0794.
For the variant GUCCUCUUUCACGUGCGCGUGAAAGAGAGAAGUGAACCAGAGACACACACGUUGUGGUAAAUUACCUGGUA [A44C U60A], the self-cleavage came out at 0.172.
As to GUCCUCUUUCACGUGCGCGUGAAAGAGAGAAGUGAACCAGAGACACACACGUUGUGGCAUAUUACCUGGUA [A44C U58C], the self-cleavage is 0.141.
Take GUCCUCUUUCACGUGCGCGUGAAAGAGAGAAGUGAACCAGAGACACACACGUUGUGGGAUAUUACCUGGUA [A44C U58G]: the self-cleavage is 0.128.
For GUCCUCUUUCACGUGCGCGUGAAAGAGAGAAGUGAACCAGAGAGACACACGUUGUGUUAUAUUACCUGGUA [A44G G57U], the self-cleavage was 0.022.
The same measure for GUCCUCUUUCACGUGCGCGUGAAAGAGAGAAGUGAACCAGAGAGACACACGUUGUGCUAUAUUACCUGGUA [A44G G57C]: 0.148; for GUCCUCUUUCACGUGCGCGUGAAAGAGAGAAGUGAACCAGAGAUACACACGUCGUGGUAUAUUACCUGGUA [A44U U53C]: 0.0977.
